B2: VSL12 peptide (peptide)
peptide: VSLARRPLPPLP
modifications: also: biotin (site not given here)
notes: Biotinylated for immobilisation in SPR; source: synthetic peptide (University of Pittsburgh Peptide Synthesis Core)

In assay [1] the target is B2. Briefly: SPR; same runs as a1 (biotinylated VSL12 on a streptavidin chip, 25°C, HBS-EP); equilibrium responses against analyte concentration, steady state model. The conditions noted are these: both partners purified.
The target of assay [2] is B2. Put plainly: SPR; Biacore 3000; biotinylated VSL12 immobilised to 80 RU on a streptavidin chip; domain proteins flowed in duplicate at 25°C in HBS-EP (10 mM HEPES pH 7.4, 150 mM NaCl, 3 mM EDTA, 0.05% P20); 180 s association, 300 s dissociation; double referenced; kinetic fit, 1:1 Langmuir model. The settings on record: both partners purified.
Another assay has as its target Fyn-YEEI (human, phosphotyrosine in the C-terminal tail (pTyr-Glu-Glu-Ile-Pro)). Briefly: cell-based or functional assay.
The next assay addresses Lyn-YEEI (human, phosphotyrosine in the C-terminal tail (pTyr-Glu-Glu-Ile-Pro)). Briefly: cell-based or functional assay.
In assay [3] the target is T1, c-Src SH3 domain (human, UniProt P12931-1 81-142).
T1 construct: human c-Src, SH3 domain, residues 81-142; Cloned into pET21a through NdeI and XhoI; source: E. coli Rosetta 2(DE3)pLysS, purified (anion exchange, IMAC, SEC)
Briefly: SPR; same runs as a1 (biotinylated VSL12 on a streptavidin chip, 25°C, HBS-EP); equilibrium responses against analyte concentration, steady state model. The settings on record: both partners purified.

For assay [4], the target named is T1, c-Src SH3 domain. Put plainly: SPR; Biacore 3000; biotinylated VSL12 immobilised to 80 RU on a streptavidin chip; domain proteins flowed in duplicate at 25°C in HBS-EP (10 mM HEPES pH 7.4, 150 mM NaCl, 3 mM EDTA, 0.05% P20); 180 s association, 300 s dissociation; double referenced; kinetic fit, 1:1 Langmuir model. The settings on record: both partners purified.

Ends that are not written are not given here.

B1: Lyn SH3 domain (domain or fragment)
chain: EQGDIVVALYPYDGIHPDDLSFKKGEKMKVLEEHGEWWKAKSLLTKKEGFIPSNYVAKLNT
With B1, binding in the assay with VSL12 peptide [1] was characterised by a dissociation constant (Kd) of 0.562 µM. In the assay with VSL12 peptide [2], this molecule showed a dissociation constant Kd of 0.647 µM, a koff of 0.137 s⁻¹ and a kon of 212000 M⁻¹ s⁻¹.
In the case of B2, the “Kact: VSL12 concentration at half-maximal activation of kinase activity (ADP Quest kinetic kinase assay, VSL12 0.1 to 300 µM, basal rate subtracted)” value stood at 24.9 µM with Fyn-YEEI and 4.03 µM in the assay with Lyn-YEEI. Further, the Kd with c-Src SH3 domain [3] is 4 µM; in the assay with c-Src SH3 domain [4] it was 3.42 µM.

For the origin of these results see PMC4140816 (PLoS ONE, 2014).
